# B1: 抗人Tim-3单克隆抗体CDT1 (antibody, V domains shown)
# VH: VKLQESGGGLVQPGGSLRLSCATSGFTFTDYYMSWVRQPPGKALEWLGFIRNKANGYTTEYSASVKGRFTISRDYSQSILYLQMNTLTAEDSATYFCARDLDYWGQGTTVTVSS
# VL: NIMMTQSPSSLAVSAGEKVTMSCKSSQSVLYSSNQKNFLAWYQQKPGQSPELLIYWASTRVSGVPDRFTGSGSGTDFTLTISNVQAEDLAVYYCHQYLSLRTFGGGTKLEI
# notes: also called CDT1抗体
# Target: T1, 人Tim-3胞外区 (human, UniProt Q8TDQ0 22-202)
# T1 construct: extracellular domain; also called T细胞免疫球蛋白黏蛋白分子3
# T1 sequence (looked up): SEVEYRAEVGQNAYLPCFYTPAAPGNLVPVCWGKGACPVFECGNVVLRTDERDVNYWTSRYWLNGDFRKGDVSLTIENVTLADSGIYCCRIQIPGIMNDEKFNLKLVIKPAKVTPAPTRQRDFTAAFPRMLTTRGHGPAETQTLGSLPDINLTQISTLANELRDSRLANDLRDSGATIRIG
# Test: hybridoma screening, indirect ELISA
binder,measurement,value
B1,binding result,binds
